Test results published in publication PMC5737868.

Legend:
[1] = molecular target: FUS-P525L-NLUC-HA / NLUC-FUS-P525L-HA (full-length) (UniProt P35637 1-526, P525L); experiment: NanoBRET
FUS-NLUC-FLAG = FUS-NLUC-FLAG (UniProt P35637 1-526, P525L); experiment: NanoBRET

B1: 2'-F PS-ASO ION-766637 (XNA)
DNA: CTGCTAGCCTCTGGATTTGA
modifications: full phosphorothioate, 2'-fluoro-modified gapmer (pattern not in the material)
Kd [1]: 2.2 ± 0.2 nM

B2: PO-RNA JB-39 (ssRNA)
RNA: CUGCUAGCCUCUGGAUUUGA
Kd (FUS-NLUC-FLAG): 143 ± 38.2 nM
